Measurements from publication PMC4329188, “Expression, purification, crystallization, and preliminary X-ray crystallographic studies of the human adiponectin receptors, AdipoR1 and AdipoR2” (Journal of Structural and Functional Genomics, 2015).

Molecular target: T1, purified AdipoR1Δ88 (human adiponectin receptor 1, residues 89–375), as used for SPR and antibody screening (human, UniProt Q96A54 89-375)
T1 construct: adiponectin receptor 1 (AdipoR1), human, residues 89-375 (N-terminally truncated mutant Δ88); Same construct as m1; SDS-denatured in the dot blot; source: Trichoplusia ni (High Five) insect cells, baculovirus; purified; reconstituted into liposomes for SPR and ELISA
T1 sequence (looked up): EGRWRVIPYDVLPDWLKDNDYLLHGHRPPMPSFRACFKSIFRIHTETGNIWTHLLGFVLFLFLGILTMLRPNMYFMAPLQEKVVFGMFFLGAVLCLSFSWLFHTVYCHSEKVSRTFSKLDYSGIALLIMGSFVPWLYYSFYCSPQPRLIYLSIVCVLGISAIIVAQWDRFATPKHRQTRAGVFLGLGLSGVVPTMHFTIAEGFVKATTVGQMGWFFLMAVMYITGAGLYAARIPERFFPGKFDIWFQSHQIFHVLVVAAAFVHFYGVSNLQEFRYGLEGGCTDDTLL
Test: SPR; purified AdipoR1Δ88 reconstituted into liposomes (egg yolk PC, biotinyl-PE) and immobilised on a sensor chip SA; osmotin 0.5–8 μM as analyte; Biacore T200
Details: both partners purified

- Kd: 700 nM
B1: osmotin (ligand)
chain: ATIEVRNNCPYTVWAASTPIGGGRRLDRGQTWVINAPRGTKMARVWGRTNCNFNAAGRGTCQTGDCGGVLQCTGWGKPPNTLAEYALDQFSGLDFWDISLVDGFNIPMTFAPTNPSGGKCHAIHCTANINGECPRELRVPGGCNNPCTTFGGQQYCCTQGPCGPTFFSKFFKQRCPDAYSYPQDDPTSTFTCPGGSTNYRVIFCPNGQAHPNFPLEMPGSDEVAK
